Assay results taken from article PMC12865225 (Clinical and Translational Science, 2026).
“And” between values parts separate entries of the source, which are not always exact repeats. Equal entries are not always repeated.

Columns and labels:
[1] = target: T1, OATP1B3 (Homo sapiens, UniProt Q9NPD5); design: method as in PMID 23571415; details: 10 μM in vitro; cited from earlier work
T1 construct: expressed in transfected cells; host or cells: HEK293 (recombinant baculovirus-mediated transduction)
T1 sequence (Q9NPD5 1-702): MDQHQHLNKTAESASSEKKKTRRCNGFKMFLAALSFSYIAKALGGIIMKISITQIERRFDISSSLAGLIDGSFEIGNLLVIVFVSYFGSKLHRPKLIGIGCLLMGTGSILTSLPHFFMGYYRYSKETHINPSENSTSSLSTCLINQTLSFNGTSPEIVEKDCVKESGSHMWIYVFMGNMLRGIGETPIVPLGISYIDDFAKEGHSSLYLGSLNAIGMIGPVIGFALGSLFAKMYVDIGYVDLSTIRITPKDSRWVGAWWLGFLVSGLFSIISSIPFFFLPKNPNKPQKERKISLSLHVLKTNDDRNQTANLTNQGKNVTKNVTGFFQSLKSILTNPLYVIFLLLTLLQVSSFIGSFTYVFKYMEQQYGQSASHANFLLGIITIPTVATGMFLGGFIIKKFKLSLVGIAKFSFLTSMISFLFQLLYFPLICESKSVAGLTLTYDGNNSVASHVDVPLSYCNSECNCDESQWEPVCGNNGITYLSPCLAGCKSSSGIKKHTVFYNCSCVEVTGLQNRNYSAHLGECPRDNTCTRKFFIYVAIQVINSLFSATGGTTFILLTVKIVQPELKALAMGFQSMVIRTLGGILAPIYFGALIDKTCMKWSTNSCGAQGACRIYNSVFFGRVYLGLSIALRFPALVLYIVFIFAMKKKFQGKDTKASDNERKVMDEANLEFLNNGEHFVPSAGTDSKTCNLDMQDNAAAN

[2] = target: T2, OATP1B1 (Homo sapiens, UniProt Q9Y6L6); design: method as in PMID 23571415; details: 10 μM in vitro; cited from earlier work
T2 construct: expressed in transfected cells; host or cells: HEK293 (recombinant baculovirus-mediated transduction)
T2 sequence (Q9Y6L6 1-691): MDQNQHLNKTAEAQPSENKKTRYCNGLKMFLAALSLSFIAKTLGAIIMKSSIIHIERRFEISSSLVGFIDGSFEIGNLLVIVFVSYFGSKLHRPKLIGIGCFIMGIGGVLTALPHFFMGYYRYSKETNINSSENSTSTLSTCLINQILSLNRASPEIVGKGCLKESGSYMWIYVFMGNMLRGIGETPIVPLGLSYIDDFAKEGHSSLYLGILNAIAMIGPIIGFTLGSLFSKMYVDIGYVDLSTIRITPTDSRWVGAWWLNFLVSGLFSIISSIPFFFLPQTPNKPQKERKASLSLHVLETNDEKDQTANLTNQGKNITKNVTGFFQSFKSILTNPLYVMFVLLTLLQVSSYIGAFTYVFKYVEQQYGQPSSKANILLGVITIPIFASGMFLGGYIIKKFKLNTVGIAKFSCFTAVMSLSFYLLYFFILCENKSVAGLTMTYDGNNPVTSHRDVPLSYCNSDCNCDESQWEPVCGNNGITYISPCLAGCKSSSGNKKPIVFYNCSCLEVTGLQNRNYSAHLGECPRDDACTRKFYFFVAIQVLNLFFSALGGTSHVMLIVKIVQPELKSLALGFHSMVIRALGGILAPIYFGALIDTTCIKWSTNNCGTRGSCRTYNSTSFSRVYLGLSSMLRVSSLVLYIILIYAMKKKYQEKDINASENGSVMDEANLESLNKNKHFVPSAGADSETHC

[3] = substrate: Cc1onc(-c2c(Cl)cccc2Cl)c1C(=O)N[C@@H]1C(=O)N2[C@@H]1SC(C)(C)[C@@H]2C(=O)O; experiment: cells, lysate or membranes; details: other: uptake, 2 min; pH 7.4; 37.0 °C
[4] = substrate: Cc1onc(-c2c(F)cccc2Cl)c1C(=O)N[C@@H]1C(=O)N2[C@@H]1SC(C)(C)[C@@H]2C(=O)O; experiment: cells, lysate or membranes; details: other: uptake, 2 min; pH 7.4; 37.0 °C

For `Cc1onc(-c2ccccc2Cl)c1C(=O)N[C@@H]1C(=O)N2[C@@H]1SC(C)(C)[C@@H]2C(=O)O` [cloxacillin], the “inhibition of OATP1B3 transport” value [1] is listed as “around 50%” and the “inhibition of OATP1B1 transport” value [2] is listed as “around 50%”.

B1: OAT3 (Homo sapiens) (protein)
chain: MTFSEILDRVGSMGHFQFLHVAILGLPILNMANHNLLQIFTAATPVHHCRPPHNASTGPWVLPMGPNGKPERCLRFVHPPNASLPNDTQRAMEPCLDGWVYNSTKDSIVTEWDLVCNSNKLKEMAQSIFMAGILIGGLVLGDLSDRFGRRPILTCSYLLLAASGSGAAFSPTFPIYMVFRFLCGFGISGITLSTVILNVEWVPTRMRAIMSTALGYCYTFGQFILPGLAYAIPQWRWLQLTVSIPFFVFFLSSWWTPESIRWLVLSGKSSKALKILRRVAVFNGKKEEGERLSLEELKLNLQKEISLAKAKYTASDLFRIPMLRRMTFCLSLAWFATGFAYYSLAMGVEEFGVNLYILQIIFGGVDVPAKFITILSLSYLGRHTTQAAALLLAGGAILALTFVPLDLQTVRTVLAVFGKGCLSSSFSCLFLYTSELYPTVIRQTGMGVSNLWTRVGSMVSPLVKITGEVQPFIPNIIYGITALLGGSAALFLPETLNQPLPETIEDLENWSLRAKKPKQEPEVEKASQRIPLQPHGPGLGSS
In the case of B1, the Km [3] is reported as 22.4 µM and the Km [4] is reported as 27.0 µM.

B2: OATP2B1 (Homo sapiens) (protein)
chain: MGPRIGPAGEVPQVPDKETKATMGTENTPGGKASPDPQDVRPSVFHNIKLFVLCHSLLQLAQLMISGYLKSSISTVEKRFGLSSQTSGLLASFNEVGNTALIVFVSYFGSRVHRPRMIGYGAILVALAGLLMTLPHFISEPYRYDNTSPEDMPQDFKASLCLPTTSAPASAPSNGNCSSYTETQHLSVVGIMFVAQTLLGVGGVPIQPFGISYIDDFAHNSNSPLYLGILFAVTMMGPGLAFGLGSLMLRLYVDINQMPEGGISLTIKDPRWVGAWWLGFLIAAGAVALAAIPYFFFPKEMPKEKRELQFRRKVLAVTDSPARKGKDSPSKQSPGESTKKQDGLVQIAPNLTVIQFIKVFPRVLLQTLRHPIFLLVVLSQVCLSSMAAGMATFLPKFLERQFSITASYANLLIGCLSFPSVIVGIVVGGVLVKRLHLGPVGCGALCLLGMLLCLFFSLPLFFIGCSSHQIAGITHQTSAHPGLELSPSCMEACSCPLDGFNPVCDPSTRVEYITPCHAGCSSWVVQDALDNSQVFYTNCSCVVEGNPVLAGSCDSTCSHLVVPFLLLVSLGSALACLTHTPSFMLILRGVKKEDKTLAVGIQFMFLRILAWMPSPVIHGSAIDTTCVHWALSCGRRAVCRYYNNDLLRNRFIGLQFFFKTGSVICFALVLAVLRQQDKEARTKESRSSPAVEQQLLVSGPGKKPEDSRV
With B2 the Km [3] was 34.7 µM and the Km [4] was 41.6 µM.

B3: OAT4 (Homo sapiens) (protein)
chain: MAFSKLLEQAGGVGLFQTLQVLTFILPCLMIPSQMLLENFSAAIPGHRCWTHMLDNGSAVSTNMTPKALLTISIPPGPNQGPHQCRRFRQPQWQLLDPNATATSWSEADTEPCVDGWVYDRSVFTSTIVAKWDLVCSSQGLKPLSQSIFMSGILVGSFIWGLLSYRFGRKPMLSWCCLQLAVAGTSTIFAPTFVIYCGLRFVAAFGMAGIFLSSLTLMVEWTTTSRRAVTMTVVGCAFSAGQAALGGLAFALRDWRTLQLAASVPFFAISLISWWLPESARWLIIKGKPDQALQELRKVARINGHKEAKNLTIEVLMSSVKEEVASAKEPRSVLDLFCVPVLRWRSCAMLVVNFSLLISYYGLVFDLQSLGRDIFLLQALFGAVDFLGRATTALLLSFLGRRTIQAGSQAMAGLAILANMLVPQDLQTLRVVFAVLGKGCFGISLTCLTIYKAELFPTPVRMTADGILHTVGRLGAMMGPLILMSRQALPLLPPLLYGVISIASSLVVLFFLPETQGLPLPDTIQDLESQKSTAAQGNRQEAVTVESTSL
Work on B3 yielded a Km [3] of 32.9 µM and a Km [4] of 52.5 µM.

B4: OATP1B1 (Homo sapiens) (protein)
chain: T2 sequence (Q9Y6L6 1-691)
For B4, the Km [3] was 3.22 µM and 3 µM and the Km [4] was 10.4 µM.
